Paper PMC3433420, “Comprehensive Binary Interaction Mapping of SH2 Domains via Fluorescence Polarization Reveals Novel Functional Diversification of ErbB Receptors” (PLoS ONE, 2012)
Where “and” joins values, the source holds several entries; their conditions need not be identical. Identical values can stand only once. Non-standard residues stand in square brackets, D forms with d. No end group written: not given here. pY = N[C@@H](Cc1ccc(OP(=O)(O)O)cc1)C(=O)O; Rhodamine = not defined here

Columns and labels:
Test in all cases: peptide or protein array; SH2/PTB proteins spotted on aldehyde slides, rhodamine peptide titrated in buffer B (20 mM HEPES, 100 mM KCl, 0.1% Tween-20, 5 mM DTT, pH 7.8), 1 h at room temperature; replicate assays
Conditions in all cases: both partners purified
ABL1 SH2 domain = molecular target: T1, ABL1 SH2 domain (human, UniProt P00519 127-217)
T1 construct: ABL1, human; source: bacterial expression, purified
T1 sequence (looked up): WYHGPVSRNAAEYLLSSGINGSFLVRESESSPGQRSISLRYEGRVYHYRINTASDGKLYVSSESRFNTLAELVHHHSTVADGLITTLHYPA

[1] = molecular target: T2, PIK3R1 tandem SH2 domains (human, UniProt P27986 1-724)
T2 construct: PIK3R1, human; also called PIK3R1-NC; source: bacterial expression, purified
T2 sequence (P27986 whole entry, the tested form may be a part): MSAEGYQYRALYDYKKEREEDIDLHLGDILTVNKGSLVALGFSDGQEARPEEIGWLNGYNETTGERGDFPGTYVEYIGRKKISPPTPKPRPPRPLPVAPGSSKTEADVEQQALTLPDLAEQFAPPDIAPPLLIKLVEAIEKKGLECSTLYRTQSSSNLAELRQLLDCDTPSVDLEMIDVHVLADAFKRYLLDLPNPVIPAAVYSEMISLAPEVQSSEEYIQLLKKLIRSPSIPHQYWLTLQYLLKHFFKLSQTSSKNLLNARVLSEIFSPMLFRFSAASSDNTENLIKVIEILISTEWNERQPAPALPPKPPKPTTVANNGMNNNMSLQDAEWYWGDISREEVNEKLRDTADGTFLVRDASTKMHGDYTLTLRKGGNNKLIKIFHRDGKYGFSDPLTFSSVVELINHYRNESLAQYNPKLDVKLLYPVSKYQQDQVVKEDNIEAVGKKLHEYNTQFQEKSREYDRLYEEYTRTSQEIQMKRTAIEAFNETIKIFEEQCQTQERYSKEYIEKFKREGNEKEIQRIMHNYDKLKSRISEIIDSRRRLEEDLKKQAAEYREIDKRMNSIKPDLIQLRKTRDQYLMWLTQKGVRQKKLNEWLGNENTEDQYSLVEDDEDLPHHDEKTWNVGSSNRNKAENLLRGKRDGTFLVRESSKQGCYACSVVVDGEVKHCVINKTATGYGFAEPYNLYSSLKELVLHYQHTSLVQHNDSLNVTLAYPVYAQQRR

PTK6 SH2 domain = molecular target: T3, PTK6 SH2 domain (human, UniProt Q13882 78-170)
T3 construct: PTK6, human; source: bacterial expression, purified
T3 sequence (Q13882 78-170): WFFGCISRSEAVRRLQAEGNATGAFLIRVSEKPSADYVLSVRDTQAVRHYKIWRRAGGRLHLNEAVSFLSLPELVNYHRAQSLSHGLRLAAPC

SH2B3 SH2 domain = molecular target: T4, SH2B3 SH2 domain (human, UniProt Q9UQQ2 364-462)
T4 construct: SH2B3, human; source: bacterial expression, purified
T4 sequence (Q9UQQ2 364-462): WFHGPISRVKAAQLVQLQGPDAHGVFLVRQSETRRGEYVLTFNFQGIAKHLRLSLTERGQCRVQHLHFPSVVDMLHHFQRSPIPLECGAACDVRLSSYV

SH2D1A SH2 domain = molecular target: T5, SH2D1A SH2 domain (human, UniProt O60880 6-104)
T5 construct: SH2D1A, human; source: bacterial expression, purified
T5 sequence (looked up): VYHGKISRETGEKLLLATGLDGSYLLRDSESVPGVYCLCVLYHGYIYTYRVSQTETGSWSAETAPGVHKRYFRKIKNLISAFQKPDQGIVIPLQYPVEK

TNS3 SH2 domain = molecular target: T6, TNS3 SH2 domain (human, UniProt Q68CZ2 1172-1282)
T6 construct: TNS3, human; source: bacterial expression, purified
T6 sequence (looked up): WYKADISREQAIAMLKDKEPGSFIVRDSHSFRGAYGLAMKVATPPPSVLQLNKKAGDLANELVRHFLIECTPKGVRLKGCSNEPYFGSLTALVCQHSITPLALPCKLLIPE

VAV1 SH2 domain = molecular target: T7, VAV1 SH2 domain (human, UniProt P15498 671-765)
T7 construct: VAV1, human; source: bacterial expression, purified
T7 sequence (looked up): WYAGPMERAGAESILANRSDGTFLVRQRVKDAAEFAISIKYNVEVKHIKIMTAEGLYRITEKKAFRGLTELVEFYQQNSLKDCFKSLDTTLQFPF

[2] = molecular target: T8, ZAP70 C-terminal SH2 domain (human, UniProt P43403 1-619)
T8 construct: ZAP70, human; source: bacterial expression, purified
T8 sequence (looked up): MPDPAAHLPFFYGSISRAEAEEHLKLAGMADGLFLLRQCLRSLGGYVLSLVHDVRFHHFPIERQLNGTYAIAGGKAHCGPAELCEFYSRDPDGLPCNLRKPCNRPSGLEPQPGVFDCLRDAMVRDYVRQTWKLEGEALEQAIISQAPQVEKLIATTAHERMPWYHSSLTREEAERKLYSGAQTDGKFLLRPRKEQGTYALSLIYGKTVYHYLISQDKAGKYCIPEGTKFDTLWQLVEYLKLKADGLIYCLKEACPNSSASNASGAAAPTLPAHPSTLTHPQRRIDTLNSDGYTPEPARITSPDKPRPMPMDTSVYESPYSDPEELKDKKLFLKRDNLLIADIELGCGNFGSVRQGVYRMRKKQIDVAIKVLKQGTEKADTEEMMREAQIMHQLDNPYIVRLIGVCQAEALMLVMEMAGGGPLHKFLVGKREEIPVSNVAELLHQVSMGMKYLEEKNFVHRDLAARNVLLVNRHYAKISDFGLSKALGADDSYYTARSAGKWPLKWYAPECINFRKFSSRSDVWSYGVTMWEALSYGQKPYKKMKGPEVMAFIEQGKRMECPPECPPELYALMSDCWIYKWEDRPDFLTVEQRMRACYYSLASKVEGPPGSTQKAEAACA

CRK SH2 domain = molecular target: T9, CRK SH2 domain (human, UniProt P46108 13-118)
T9 construct: CRK, human; source: bacterial expression, purified
T9 sequence (P46108 13-118): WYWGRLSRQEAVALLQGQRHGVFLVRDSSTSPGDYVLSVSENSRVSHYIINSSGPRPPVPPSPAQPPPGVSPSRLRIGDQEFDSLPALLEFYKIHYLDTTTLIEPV

## Rhodamine-ETDG[pY]VAPLTCSD (reading uncertain) [ErbB2 pY1127 phosphopeptide, rhodamine-labelled, for protein microarrays]
ABL1 SH2 domain
  Kd: 0.529 µM and 0.301 µM
[1]
  Kd: 0.0109 µM and 0.01 µM
PTK6 SH2 domain
  Kd: 4.18 µM and 1.57 µM
SH2B3 SH2 domain
  Kd: 1.38 µM and 2.3 µM
SH2D1A SH2 domain
  Kd: 1.6 µM and 4.59 µM
TNS3 SH2 domain
  Kd: 5.96 µM
VAV1 SH2 domain
  Kd: 0.186 µM and 0.0916 µM
[2]
  Kd: 2.2 µM and 3.21 µM
CRK SH2 domain
  Kd: 7.71 µM
